Assay results as given in US9217032B2, “Methods for treating colorectal cancer” (LES LABORATOIRES SERVIER, priority 2010, dated 2015).

B1: MAb3: murine N-terminal anti-hPG monoclonal antibody, hybridoma 6B5B11C10, VH SEQ ID NO:12, VL SEQ ID NO:13 (antibody, V domains shown)
VH: EVQLQQSGTVLARPGASVKMSCKASGYIFTSYWVHWVKQRPGQGLEWIGGFYPGNSDSRYNQKFKGKATLTAVTSASTAYMDLSSLTNEDSAVYFCTRRDSPQYWGQGTTLTVSS
VL: DVLMTQTPLSLPVSLGDQASISCRSSQSIVHSNGNTYLEWYLQKPGQSPKLLIYKVSNRFSGVPDRFSGSGSGTDFTLKISRLEAEDLGVYYCFQGSHVPFTFGGGTKLEIK
B2: MAb8: murine C-terminal anti-hPG monoclonal antibody, hybridoma 1C10D3B9, VH SEQ ID NO:59, VL SEQ ID NO:63 (antibody, V domains shown)
VH: EVQLVESGGGLVKPGGSLKLSCAASGFTFTTYAMSWVRQTPEKRLEWVATISSGGTYTYYPDSVKGRFTISRDNAKNALYLQMSSLRSEDTAMYYCATQGNYSLDFWGQGTSLTVSS
VL: DIVMTQAASSNPVTLGTSASISCRSSKSLRHTKGITFLYWYLQKPGQSPQLLIYQMSNLASGVPDRFSSSGSGTDFTLRISRVEAEDLGVYYCAQNLELPLTFGAGTKLELK
B3: MAb4: murine N-terminal anti-hPG monoclonal antibody, hybridoma 20D2C3G2, VH SEQ ID NO:14, VL SEQ ID NO:15 (antibody, V domains shown)
VH: QVQLQQSGAELMKPGASVKISCKATGYTFSSSWIEWLKQRPGHGLEWIGEFLPGSGSTDYNEKFKGKATFTADTSSDTAYMLLSSLTSEDSAVYYCATDGNYDWFAYWGQGTLVTVSA
VL: DLVMTQTPLSLPVSLGDQASISCRSSQSLVHSSGVTYLHWYLQKPGQSPKLLIYKVSNRFSGVPDRFSGSGSGTDFTLKISRVEAEDLGVYFCSQSTHVPPTFGSGTKLEIK

How the values were obtained:
[1] = tested on: SW620 colorectal cancer cells; test: Initiation of new tumors after transplantation of cells from treated metastases; format: in vivo, BALBc/nude mice; settings: 6,500 cells subcutaneously into thighs of two nude mice; tumor volume; FIG. 29
Method: (§1) Using standard techniques, immunodeficient BALBc/nude mice were given intra-splenic injections of human metastatic SW620 colorectal cancer cells. The mice were then administered the anti-hPG monoclonal antibody MAb3 or a control monoclonal antibody twice per week for a total of six weeks. For each antibody, the dose was 8 mg/kg. At the end of the treatment period tissue was dissected from metastases from both treated and control mice. Tumor cells were disaggregated by treatment of the dissected tissue with Accumax, filtered and counted. A total of 23,800 viable tumor cells were obtained from metastatic tissue from the mice treated with MAb3, and 36,400 were obtained from control mice.
(§2) For the spheroid test, for each of the treated and control cells, 2,000 cells/well were seeded into five wells of low adherence cultureware in M11 medium supplemented with bFGF and EGF. Cells were grown for seven days, and then the number of spheroids that formed in each well was counted. For the transplantation test, spheroids developing from cells isolated from treated and control metastases were pooled, disaggregated and counted. A total of 20,000 cells were obtained from spheroids derived from treated metastases, and 110,000 cells were obtained from spheroids derived from control metastases. […] Tumor volume was then calculated through time in both animals.

[2] = tested on: T84 metastatic colorectal cancer cells; test: Pre-treatment of T84 cells: ALDH1 positive cells (ALDEFLUOR); format: cell-based, human; settings: pre-treatment 72 hours, 1 μg/ml, FIG. 24
Method: (§3) Cells tested were from the metastatic colorectal cancer cell lines T84 and SW620. Cells were first grown in conventional adherent cultureware for 72 hours in the presence of the anti-progastrin monoclonal antibody MAb3 (1 μg/ml), a control monoclonal antibody, the chemotherapeutic agent 5-fluorouracil (5FU 10 μM), or the solvent dimethylsulfoxide (DMSO). After treatment, cells were subjected to two assays. In the first, the percentage of cells positive for the cancer stem cell marker ALDH1 were determined using an ALDEFLUOR kit (Stemcell Technologies). In the second assay, for each treatment group, cells were plated into six wells of low adherence 96 well-plates at a density of 500 cells per well in 100 μl of serum-free medium containing bFGF and EGF and grown for 11 days without further treatment. After the end of this period, the number of spheroids per well was then counted.

[3] = tested on: SW620 colorectal cancer cells; test: Cells isolated from SW620 metastases of treated nude mice: cell count and spheroid growth; format: in vivo, BALBc/nude mice
Method: as §1, §2

[4] = tested on: SW620 metastatic colorectal cancer cells; test: Pre-treatment of SW620 cells: ALDH1 positive cells (ALDEFLUOR); format: cell-based, human; settings: pre-treatment 72 hours, 1 μg/ml, FIG. 25
Method: as §3

[5] = tested on: SW620 cells; test: Hepatic metastases by SW620 cell xenografts in nude mice, monoclonal antibody; format: in vivo, BALBc/nude mice
Method: A total of 5×10^6 SW620 cells were injected into the spleen of each of 20 BALBc/nude mice at age 5 weeks old. Two minutes after injection of the cells, the spleens were surgically removed. After recovery, mice were randomly divided into two groups, each of which was subjected to one of two different treatments. Specifically, 10 mice were injected with a control antibody (anti-human IgG1Fc) diluted in PBS, and 10 mice were injected with anti-hPG monoclonal antibody MAb3, also diluted in PBS. The dose of antibodies was 8 mg/kg in a volume of 150 microliters. Injections were made intraperitoneally twice per week for six weeks. Once per week each mouse was weighed. Six weeks later, after the course of injections was finished, the mice were euthanized with carbon dioxide and the livers were removed and the number of visible metastases present was counted.

[6] = tested on: T84 metastatic colorectal cancer cells; test: Growth of T84 cells in culture; format: cell-based, human; settings: FIG. 7; P value 0.0370 Mann Whitney
Method: (§4) SW620 cells were seeded into 6-well plates, serum-starved overnight, then treated every 12 hours with PBS, 3 microgram/ml control antibody (Mouse anti-human IgG1, Calbiochem, Ref #411451) or four different anti-PG monoclonal antibodies, MAb3, MAb4, MAb2, and MAb1. The experiment was carried out in duplicate, and the technician was blinded as to the contents of the treatment solutions. Forty-eight hours after the start of the treatments the number of surviving cells in each well were counted six times and averaged.
The methods employed for this experiment were similar to those used to measure the effect of anti-progastrin monoclonal antibodies on SW620 cells, except that the anti-progastrin antibody used was anti-hPG MAb3.

[7] = tested on: SW620 metastatic colorectal cancer cells; test: Growth of SW620 cells in culture, monoclonal antibodies; format: cell-based, human; settings: for reduction of growth of SW620 cells compared to control antibody: MAb1-MAb4, 48 hours; for Cell numbers: SW620, 48 hours, treated every 12 hours, average cells per well minus cells seeded (T0), CT antibody-T0 158556
Method: as §4
In a separate experiment, SW620 cells were seeded into 6-well plates (100,000 cells per well) and treated similarly above with 5 μg/ml of anti-hPG monoclonal antibodies 5-23 (i.e., MAb5-MAb23) or 5 μg/ml control antibody. After 48 hours the number of viable cells were counted from which the number of cells at the beginning of the experiment (i.e., T0) were subtracted. The number of surviving cells in the specific antibody treated wells was then expressed as a percentage of the control.

[8] = tested on: CRC1 primary colorectal cancer cells; test: Pre-treatment of CRC1 cells: ALDH1 expressing cells by FACS; format: cell-based, human; settings: 72 hours in conventional adherent culture; FIG. 22
Method: (§5) CRC1 cells were obtained from a human colon carcinoma biopsy according to standard procedures. After being dissociated in Accumax (Sigma) for 45 minutes at 37° C., CRC1 cells (100,000 cells/well) were grown under conventional adherent culture conditions in serum free DMEM medium for 72 hours in the presence or absence of anti-hPG monoclonal antibodies MAb5, MAb8, MAb13 or MAb16. Experiments were carried out in blinded fashion. At the end of the treatment period, two different assays were performed on the cells. First, the percentage of cells expressing ALDH1, a marker of colorectal cancer stem cells, was determined by FACS. In the second assay, for each treatment group, 200 cells/well were plated in six wells of a low adherence 24-well plate in 500 μl of serum-free M11 medium supplemented with bFGF and EGF, and grown for 7 days without further treatment. At the end of this period, photographs were taken and the number of spheres per well was counted, and sphere surface area measured.

[9] = tested on: CRC1 primary colorectal cancer cells; test: Spheroid formation by CRC1 cells in low adherence culture, monoclonal antibodies; format: cell-based, human; settings: CRC1, 3 μg/ml; p<0.05 one-way ANOVA with Bonferroni; FIG. 20
Method: CRC1 cells were obtained from a human colon carcinoma biopsy according to standard procedures. After being dissociated in Accumax (Sigma) for 45 minutes at 37° C., cells were plated in low adherence 96 well-plates (Corning) at a density of 100 cells per well in M11 medium (DMEM/F12 with 20 ng/ml EGF, 10 ng/ml FGF, 20 μg/ml insulin, N2 supplement, 2 μg/ml cyproflaxin, 5 μg/ml gentamycin and 3 mg/ml glucose). For each treatment arm, 10 wells were used. Starting on the first day, cells were treated twice daily with one of four different anti-progastrin monoclonal antibodies, MAb5, MAb8, MAb13 or MAb16 (3 μg/ml) or the same concentration of monoclonal antibody P3X63Ag8 (ATCC, Ref TIB-9) or medium with no antibody added as controls. Thereafter, treatment was performed once daily for 8 days. Spheres were photographed daily for subsequent counting. All experiments were carried out in blinded fashion. After the conclusion of the experiment, the number of spheres from each treatment art was counted.

[10] = tested on: CRC1 primary colorectal cancer cells; test: Pre-treatment of CRC1 cells: spheroids in low adherence culture; format: cell-based, human; settings: 72 hours pre-treatment, then 7 days low adherence without antibody, FIG. 23, MAb5, MAb8, MAb16 p<0.05
Method: as §5

Molecule	ability to initiate new tumor growth after transplantation [1]	number of ALDH1 positive cells compared to control antibody [2]	viable tumor cells obtained from metastatic tissue ([3]; 8 mg/kg twice per week for six weeks, control mice 36,400)	growth as spheroids of cells isolated from in vivo metastases ([3]; mice treated 8 mg/kg twice per week six weeks, 2,000 cells/well, seven days, FIG. 28)	number of ALDH1 positive cells compared to control antibody [4]	mean weight of liver metastases ([5]; 8 mg/kg i.p. twice per week, six weeks, control mice 167 mg, not statistically significant) [mg]	decrease of mean number of metastases versus control antibody ([5]; 8 mg/kg i.p. twice per week, six weeks, p=0.0372) [%]	mean number of metastases ([5]; 8 mg/kg intraperitoneally twice per week for six weeks, control antibody 7.3)	reduction of growth of T84 cells compared to control antibody [6]	reduction of growth of SW620 cells compared to control antibody [7]	Cell numbers [7]	number of CRC1 cells expressing ALDH1 compared to control [8]	number of spheroids formed compared to non-specific antibody and medium alone [9]	number of spheroids formed after pre-treatment compared to control [10]
B1	reduced	reduced	23,800	reduced	reduced	96	41	4.3	effective to reduce the growth of T84 metastatic colorectal cancer cells	more effective than the others	50056			
B2												reduce the number CRC1 primary colorectal cancer cells expressing ALDH1	effective to reduce the number spheroids	effective to reduce the number of spheroids
B3										more effective than the others	52984			
